B1: Hammerhead Ribozyme (parent)
chain: ACCGGAUGUGCUUUCCGGUCUGAUGAGUCCGUGAGGACGAAACAG

Variants of B1 are the subject of the series. Nature of the series: self-cleavage, relative activity (ratio to wild type); higher = more cleavage; co-transcriptional.
Turning to C30G G39A, the self-cleavage was 0.26.

In the case of C30G G39U, the self-cleavage was determined as 0.337.

With C30G G39C, the self-cleavage came to 0.334.

For C30A A34C, the self-cleavage is 0.798.

For the variant C30A A34G, the self-cleavage turned out to be 0.628.

Turning to C30A A34U, the self-cleavage was 0.66.

As to G31C A34G, the self-cleavage amounted to 0.994.

For the variant G31C A34C, the self-cleavage is 1.

With G31C A34U, the self-cleavage came out at 0.68.

On to C30A G35A, for which the self-cleavage amounted to 0.765.

On to C30A G35C, for which the self-cleavage was found to be 0.793.

Regarding C30A G35U, the self-cleavage was found to be 1.17.

On to G31C G36A, for which the self-cleavage was found to be 0.527.

With G31C G36C, the self-cleavage came out at 0.453.

Regarding G31C G36U, the self-cleavage came to 0.562.

G31C G39C: the self-cleavage was found to be 0.314.

Turning to G31C G39A, the self-cleavage was 0.355.

Take G31C G39U: the self-cleavage turned out to be 0.373.

Turning to U32C A37U, the self-cleavage stood at 0.752.

As for U32C A37G, the self-cleavage amounted to 0.987.

As to U32C A37C, the self-cleavage is 0.803.

With C30U, the self-cleavage came out at 1.02.

On to C30A, for which the self-cleavage came to 0.919.

With C30G, the self-cleavage is 0.867.

As to C29U G35C, the self-cleavage stood at 0.778.

Turning to C29U G35A, the self-cleavage stood at 0.636.

Regarding C29U G35U, the self-cleavage turned out to be 0.744.

As for G31A A40U, the self-cleavage turned out to be 0.297.

For G31A A40C, the self-cleavage was 0.642.

Regarding G31A A40G, the self-cleavage stood at 0.417.

Take G31U C38A: the self-cleavage was found to be 0.776.

G31U C38G: the self-cleavage worked out at 0.59.

For the variant G31U C38U, the self-cleavage came out at 0.801.

As to G31A G45A, the self-cleavage came out at 0.934.

On to G31A G45C, for which the self-cleavage was found to be 0.945.

For the variant G31A G45U, the self-cleavage came out at 0.805.

As for C30G G35C, the self-cleavage is 1.03.

As to C30G G35A, the self-cleavage is 1.06.

As for C30G G35U, the self-cleavage was 1.04.

As to G31A G36U, the self-cleavage is 0.552.

On to G31A G36A, for which the self-cleavage was found to be 0.603.

For the variant G31A G36C, the self-cleavage was found to be 0.671.

For G31U A42G, the self-cleavage came out at 0.28.

As to G31U A42U, the self-cleavage was determined as 0.295.

G31U A42C: the self-cleavage turned out to be 0.363.

With U32A G35C, the self-cleavage worked out at 0.796.

U32A G35U: the self-cleavage was 0.985.

Turning to U32A G35A, the self-cleavage stood at 0.75.

As to G31U G33A, the self-cleavage was determined as 0.708.

G31U G33U: the self-cleavage worked out at 1.23.

With G31U G33C, the self-cleavage came out at 1.08.

Regarding U32A A42C, the self-cleavage worked out at 0.315.

In the case of U32A A42G, the self-cleavage was determined as 0.238.

Turning to U32A A42U, the self-cleavage worked out at 0.373.

For C30A G36A, the self-cleavage was determined as 0.573.

With C30A G36C, the self-cleavage was found to be 0.525.

Turning to C30A G36U, the self-cleavage came to 0.639.

Consider G31U G45A, for which the self-cleavage came out at 0.95.

G31U G45U: the self-cleavage was found to be 0.933.

Take G31U G45C: the self-cleavage worked out at 0.819.

Consider G31U C43G, for which the self-cleavage worked out at 0.472.

As for G31U C43U, the self-cleavage came to 0.637.

For the variant G31U C43A, the self-cleavage amounted to 0.376.

With G31A A37U, the self-cleavage amounted to 0.866.

G31A A37C: the self-cleavage was determined as 1.17.

As to G31A A37G, the self-cleavage is 0.978.

For U32A, the self-cleavage stood at 0.949.

As to U32C, the self-cleavage is 1.

On to G31U G39U, for which the self-cleavage worked out at 0.353.

As to G31U G39A, the self-cleavage worked out at 0.32.

As for G31U G39C, the self-cleavage turned out to be 0.474.

Take G31A A41G: the self-cleavage came out at 0.317.

G31A A41U: the self-cleavage turned out to be 0.399.

As for G31A A41C, the self-cleavage is 0.407.

Take C30A A42C: the self-cleavage amounted to 0.322.

For the variant C30A A42U, the self-cleavage was 0.312.

Regarding C30A A42G, the self-cleavage stood at 0.246.

As for C30G C38G, the self-cleavage came out at 0.493.

C30G C38U: the self-cleavage is 0.797.

C30G C38A: the self-cleavage was 0.402.

With U32A G36C, the self-cleavage came out at 0.37.

Take U32A G36U: the self-cleavage is 0.668.

With U32A G36A, the self-cleavage was determined as 0.721.

As to C30U G39A, the self-cleavage was determined as 0.278.

Turning to C30U G39C, the self-cleavage stood at 0.319.

C30U G39U: the self-cleavage came to 0.365.

Regarding U32A A34C, the self-cleavage came out at 0.796.

In the case of U32A A34U, the self-cleavage worked out at 1.04.

For the variant U32A A34G, the self-cleavage was found to be 0.818.

Regarding C30U A34C, the self-cleavage came to 1.03.

Consider C30U A34G, for which the self-cleavage was found to be 0.961.

Regarding C30U A34U, the self-cleavage stood at 0.93.

Turning to G31C A42G, the self-cleavage amounted to 0.232.

On to G31C A42U, for which the self-cleavage was determined as 0.373.

Turning to G31C A42C, the self-cleavage amounted to 0.328.

For the variant C30U G31C, the self-cleavage was determined as 1.11.

Take C30U G31U: the self-cleavage was 1.01.

With C30U G31A, the self-cleavage was found to be 1.02.

Take G31U A40U: the self-cleavage is 0.399.

Regarding G31U A40G, the self-cleavage was 0.382.

In the case of G31U A40C, the self-cleavage stood at 0.797.

Regarding G31A A44C, the self-cleavage was 0.685.

On to G31A A44G, for which the self-cleavage amounted to 1.51.

Turning to G31A A44U, the self-cleavage worked out at 0.861.

As to G31C G45C, the self-cleavage was determined as 0.515.

In the case of G31C G45U, the self-cleavage is 0.757.

Regarding G31C G45A, the self-cleavage stood at 0.438.

Take C30G A42U: the self-cleavage worked out at 0.227.

On to C30G A42C, for which the self-cleavage was 0.306.

Turning to C30G A42G, the self-cleavage was 0.316.

With C29U G39C, the self-cleavage worked out at 0.326.

C29U G39A: the self-cleavage is 0.406.

Take C29U G39U: the self-cleavage amounted to 0.369.

Turning to U32A A41C, the self-cleavage was found to be 0.347.

Take U32A A41U: the self-cleavage worked out at 0.405.

U32A A41G: the self-cleavage was found to be 0.358.

Regarding U32A A44C, the self-cleavage was found to be 0.581.

With U32A A44U, the self-cleavage amounted to 0.633.

In the case of U32A A44G, the self-cleavage is 1.41.

For the variant C30U C43U, the self-cleavage came to 0.546.

Regarding C30U C43G, the self-cleavage was 0.343.

With C30U C43A, the self-cleavage came to 0.34.

Consider C30U G33C, for which the self-cleavage came to 0.714.

As for C30U G33U, the self-cleavage is 1.18.

For C30U G33A, the self-cleavage worked out at 1.02.

In the case of U32A A37U, the self-cleavage was found to be 0.754.

As to U32A A37G, the self-cleavage came to 1.16.

Consider U32A A37C, for which the self-cleavage came out at 0.936.

Take G31C A37G: the self-cleavage is 0.968.

G31C A37U: the self-cleavage worked out at 0.587.

For the variant G31C A37C, the self-cleavage stood at 1.05.

As to U32A C43A, the self-cleavage amounted to 0.347.

Take U32A C43G: the self-cleavage is 0.484.

With U32A C43U, the self-cleavage turned out to be 0.595.

Consider C30G A34U, for which the self-cleavage is 0.888.

For the variant C30G A34C, the self-cleavage was found to be 0.802.

In the case of C30G A34G, the self-cleavage is 0.409.

Consider G31A G35A, for which the self-cleavage came out at 1.05.

G31A G35C: the self-cleavage came out at 1.01.

Turning to G31A G35U, the self-cleavage amounted to 0.875.

Regarding C30A A37C, the self-cleavage turned out to be 0.428.

On to C30A A37G, for which the self-cleavage was 0.586.

For the variant C30A A37U, the self-cleavage stood at 0.42.

Take C30A A41G: the self-cleavage turned out to be 0.347.

With C30A A41C, the self-cleavage was found to be 0.423.

Take C30A A41U: the self-cleavage was determined as 0.377.

For the variant C30G G31A, the self-cleavage is 0.806.

Turning to C30G G31U, the self-cleavage worked out at 0.88.

As to C30G G31C, the self-cleavage came out at 0.926.

Take C30U G35A: the self-cleavage was determined as 1.02.

C30U G35U: the self-cleavage came out at 1.18.

For the variant C30U G35C, the self-cleavage was 0.758.

For the variant G31U A41C, the self-cleavage stood at 0.388.

For the variant G31U A41U, the self-cleavage was 0.324.

As to G31U A41G, the self-cleavage is 0.364.

Consider C30U A44G, for which the self-cleavage is 1.36.

As for C30U A44C, the self-cleavage was 0.632.

On to C30U A44U, for which the self-cleavage turned out to be 0.625.

As to U32A G45A, the self-cleavage came out at 0.852.

On to U32A G45U, for which the self-cleavage amounted to 0.707.

For the variant U32A G45C, the self-cleavage was 0.593.

In the case of G31U U32A, the self-cleavage amounted to 0.802.

As for G31U U32C, the self-cleavage was 0.69.

As for G31U U32G, the self-cleavage is 0.871.

Take C30A A40C: the self-cleavage was found to be 0.466.

For the variant C30A A40G, the self-cleavage is 0.414.

Regarding C30A A40U, the self-cleavage stood at 0.347.

The values above are taken from the RNAGym collection of RNA variant scans (doi:10.7554/elife.80360).
